In IntAct's records for PubMed 28469241:

B1: Heart- and neural crest derivatives-expressed protein 2 (Mus musculus), Q61039 (parent)
chain: MSLVGGFPHHPVVHHEGYPFAAAAAAAAAAAASRCSHEENPYFHGWLIGHPEMSPPDYSMALSYSPEYASGAAGLDHSHYGGVPPGAGPPGLGGPRPVKRRGTANRKERRRTQSINSAFAELRECIPNVPADTKLSKIKTLRLATSYIAYLMDLLAKDDQNGEAEAFKAEIKKTDVKEEKRKKELNEILKSTVSSNDKKTKGRTGWPQHVWALELKQ
partner: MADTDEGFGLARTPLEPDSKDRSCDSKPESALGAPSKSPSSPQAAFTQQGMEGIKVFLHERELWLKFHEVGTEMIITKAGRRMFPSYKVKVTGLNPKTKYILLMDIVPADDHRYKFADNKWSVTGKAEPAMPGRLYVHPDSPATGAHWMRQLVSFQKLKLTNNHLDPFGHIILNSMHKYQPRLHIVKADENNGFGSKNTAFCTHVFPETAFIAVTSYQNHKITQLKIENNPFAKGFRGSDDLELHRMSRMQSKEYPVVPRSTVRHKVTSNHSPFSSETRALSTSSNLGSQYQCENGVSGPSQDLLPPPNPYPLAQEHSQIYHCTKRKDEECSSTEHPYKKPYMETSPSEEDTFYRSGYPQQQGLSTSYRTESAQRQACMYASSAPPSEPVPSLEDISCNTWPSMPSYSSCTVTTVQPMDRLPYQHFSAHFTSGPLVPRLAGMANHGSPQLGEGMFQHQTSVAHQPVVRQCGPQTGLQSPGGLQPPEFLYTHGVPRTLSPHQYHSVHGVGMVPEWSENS

Variants of: B1
Conditions: with tbx5_mouse Tbx5, P70326
In the case of G202V, the “effect of a mutation on the interaction” value is reported as “decreasing interaction strength”.
